These results are taken from patent US9573983B2, “Compositions including I-domain antigen conjugate compounds and methods for treatment of autoimmune disorders” (University of Kansas, priority 2012, dated 2017).

Data set [1] is described as follows: Solubility of peptide during conjugation. The format is physicochemical. Conditions: conjugation reaction mixture; peptide dissolved in DMSO before addition.
The subject of another data set is mouse EAE model. Kind of data set: Suppression of EAE in PLP139-151/CFA-immunized mice (Example 1). It counts as in vivo, female inbred SJL/J mice. The note with it: for clinical disease scores (suppression of EAE) / incidence of disease: Ac-PLP-BPI-NH2-2 100 nmol/injection days 4, 7, 10; for clinical disease scores (suppression of EAE): p<0.0001, days 12-17; for incidence of disease: p<0.0001, days 12-24. Here is the method:
Female inbred SJL/J mice, 5-7 weeks old, were randomly divided into different groups. All mice were immunized with PLP139-151 in Freund's complete adjuvant (CFA) to induce EAE, as reported previously (3, 4). The PLP/CFA emulsion (50 μL per site) was administered to four separate regions above the shoulder and on the flanks. In addition, 200 ng of pertussis toxin (List Biological Laboratories Inc., Campbell, Calif.) was injected intraperitoneally on day 0 and 2.
After disease stimulation, one group of mice received intravenous (i.v.) injections of 26 nmol/injection/day of the conjugate IDAC on days 4 and 7. The second and third groups of mice received i.v. injections of 100 nmol/injection/day of Ac-PLP-BPI-NH2-2 and 100 microliter of PBS, respectively, on days 4, 7, and 10. The animals were weighed and observed daily. Disease progression was evaluated observed using a blinded method as reported previously (3, 4). The clinical scores were rated using the following scale: 0—no clinical signs of disease; 1—tail weakness or limp tail; 2—paraparesis (weakness or incomplete paralysis of one or two hind limbs); 3—paraplegia (complete paralysis of two hind limbs); 4—paraplegia with forelimb weakness or paralysis; and 5—moribund or dead.
Statistical differences among the groups in clinical disease scores were determined by calculating the average score for each mouse from the day of disease onset to day 20 by One-way Analysis of Variance followed by Fisher's least significant difference using StatView (SAS Institute, Cary, N.C.). Statistical differences among the groups in body weight were also analyzed in the same way. The presence of significant difference is denoted with p-values of <0.05 or <0.001.

In data set [2] the test system is EAE mouse model. Conditions: earlier study (ref. 7); cited from earlier work.
For data set [3], the system named is EAE mouse model. Description: Suppression of EAE, prophylactic and vaccine-like treatment (Example 2). It counts as in vivo, SJL/J female mice. On the procedure:
Six-to-eight week old SJL/J female mice were immunized subcutaneously with 200 μg PLP139-151 peptide in a 0.2 ml emulsion consisting of equal volumes of PBS and complete Freund's adjuvant (CFA) containing killed mycobacterium tuberculosis strain H37RA at a final concentration of 4 mg/ml (Difco, Detroit, Mich.). The PLP/CFA emulsion was administered to regions above the shoulder and the flanks (total of 4 sites, 50 μl at each injection site). In addition, 200 ng of pertussis toxin was injected intraperitoneally on the day of immunization (day 0) and 2 days post-immunization.
The mice then received either intravenous or subcutaneous injections of IDAC (10 or 26 nmol/injection) or peptides (100 nmol/injection for Ac-PLP-BPI-NH2-2 or 50 nmol/injection/mouse for Ac-PLP-cIBR1-NH2). The prophylactic disease suppression was carried out with subcutaneous or intravenous injections of IDAC molecules on days 4 and 7, or BPI molecules on days 4, 7, and 10. Mice receiving vaccine-like treatment were given subcutaneous injections of IDAC and BPI molecules at 11, 8, and 5 days prior to the induction of disease. As negative controls, mice were treated with PBS, 1-domain, and GMB-I-domain. Disease progression was evaluated by monitoring the change in weight of the mice and clinical scoring based on the severity of nerve damage ranging from 0 to 5: 0—no clinical symptoms of disease; 1—tail weakness or limp tail; 2—paraparesis (weakness or partial paralysis of one or two hind limbs); 3—paraplegia (complete paralysis of two hind limbs); 4—paraplegia with forelimb weakness or paralysis; 5—moribund (at this point, the affected mice were euthanized).
Statistical differences among the groups in clinical disease scores were determined by calculating the average score for each mouse from day 12 to day 17 by one-way analysis of variance followed by Fisher's least significant difference. Statistical differences in body weight among groups were also analyzed in the same fashion, but from day 12 to day 24. Comparison of cytokine concentrations was also performed by one-way analysis of variance. All analyses were performed using StatView (SAS Institute, Cary, N.C.).

Data set [4] is described as follows: Hydrolysis of maleimide groups upon storage. The format is physicochemical. The note with it: storage after SEC purification; to be used within 48 h.
The mark [5] stands for this setting: i.v., IDAC 26 nmol/injection days 4, 7, vs PBS.

Turning to “Ac-GWYRSPFSRVVHLC-NH2 [MOG-Cys, Ac-GWYRSPFSRVVHLC-NH2]”, in data set [1], the solubility entry is recorded as “low solubility”.

In the case of “Ac-HSLGKWLGHPDKF-(AcpGAcpGAcp)2-ITDGEATDSG-NH2 [Ac-PLP-BPI-NH2-2, reference compound]”, in the data set on mouse EAE model (setting [5]), the “clinical disease scores (suppression of EAE)” value is listed as “complete suppression of the disease” and the incidence of disease entry was “completely eliminated”. Also, the “suppression of EAE, capped vs uncapped peptide” value with EAE mouse model [2] is given as “could suppress EAE better than its uncapped counterpart (PLP-BPI)”. Moreover, the “clinical scores (suppression of EAE)” value in the data set with EAE mouse model [3] (vaccine-like s.c. days -11, -8, -5, IDAC-3 10 nmol/injection, Ac-PLP-BPI-NH2-2 100 nmol/injection, vs PBS, p<0.005, days 12-17) was “significantly suppressed EAE compared to PBS”. Besides, in the data set with EAE mouse model [3] (vaccine-like s.c. days -11, -8, -5, IDAC-3 10 nmol/injection, Ac-PLP-BPI-NH2-2 100 nmol/injection, vs PBS, p<0.005, days 12-24), the “change in body weight” value is on record as “significantly suppressed EAE compared to PBS”. The “onset of disease (incidence of disease)” value with EAE mouse model [3] (vaccine-like s.c., IDAC-3 26 nmol/injection days -11, -8, Ac-PLP-BPI-NH2-2 100 nmol/injection days -11, -8, -5) was “Delay in the onset of disease”. Further, the “relapse of disease (long-term effect)” value with EAE mouse model [3] (vaccine-like s.c., IDAC-3 26 nmol/injection days -11, -8, Ac-PLP-BPI-NH2-2 100 nmol/injection days -11, -8, -5, days 45-55) is given as “along-term effect to prevent relapse”.

B1: [N-(γ-maleimido)-1-oxybutyl]n-I-domain (protein, listed as Homo sapiens)
chain: MGNVDLVFLFDGSMSLQPDEFQKILDFMKDVMKKLSNTSYQFAAVQFSTSYKTEFDFSDYVKRKDPDALLKHVKHMLLLTNTFGAINYVATEVFREELGARPDATKVLIIITDGEATDSGNIDAAKDIIRYIIGIGKHFQTKESQETLHKFASKPASEFVKILDTFEKLKDLFTELQKKIY
modifications: GMBS maleimide-modified lysines
notes: I-domain with lysine amino groups modified by GMBS to carry maleimide groups; negative control and intermediate
Turning to B1, the “suppression of progress of EAE (clinical score, change in body weight, incidence of disease)” value in the data set on EAE mouse model [3] (two i.v. injections, 26 nmol/injection, days 4 and 7, vs PBS) is reported as “neither the I-domain nor GMB-I-domain significantly suppressed the progress of EAE”. For the same molecule, in the data set with EAE mouse model [3] (two i.v. injections, 26 nmol/injection, days 4 and 7, vs PBS, I-domain controls), the onset of disease result was “slight delay in the onset of the disease”. In data set [4], the “formation of maleimide hydrolysis products (stability)” value is given as “increased upon storage”.

B2: (HSLGKWLGHPDKFC)n-linker-I-domain (conjugate, listed as Homo sapiens)
chain 1: HSLGKWLGHPDKFC
chain 2: B1 chain
modifications: maleimide linker conjugation, ~2.5 peptides; Chemically synthesized signal 1 moiety peptide with amino acids 139-151 of PLP protein modified with a terminal cysteine
notes: PLP-Cys-OH peptides conjugated via maleimide linkers to lysine residues of LFA-1 I-domain; average 2.5 peptides per I-domain
As for B2, in the data set on mouse EAE model (setting [5]), the “clinical disease scores (suppression of EAE)” value is recorded as “significant efficacy to suppress the progress of EAE”, the incidence of disease entry was “delayed” and the “change in body weight” value is given as “prevent the changes of bodyweights of the mice significantly”. For the same molecule, the “efficacy compared with the BPI molecule” value in the data set with mouse EAE model (two i.v. injections of 26 nmol IDAC vs three of 100 nmol Ac-PLP-BPI-NH2-2) is “appeared less than that of the BPI molecule”. The disease incidence entry with EAE mouse model [3] (i.v. 26 nmol/injection days 4 and 7, vs PBS) is recorded as “delays in disease incidence”. For the same molecule, in the data set on EAE mouse model [3] (i.v. 26 nmol/injection days 4 and 7, vs PBS, IDAC molecules), the “onset of disease (clinical scores)” value is “delayed the onset of disease”. In addition, in the data set on EAE mouse model [3] (i.v. 26 nmol/injection days 4 and 7, vs PBS, p<0.0005, days 12-17), the “clinical scores (suppression of EAE)” value is “significantly better at suppressing EAE than PBS”. Also, the body weight change result in the data set on EAE mouse model [3] (i.v. 26 nmol/injection days 4 and 7, vs PBS, p<0.05, days 12-24) is “significantly more effective than PBS in suppressing disease”.
